Results taken from patent publication US20230212319A1, “NOVEL ANTIGEN BINDING DOMAINS AND SYNTHETIC ANTIGEN RECEPTORS INCORPORATING THE SAME” (University of Southern California, priority 2020, published 2023).

What was measured:
Assay type in all cases: cell-based
[1] = system: L363 cells; test: JNG assay, co-culture with L363 cells; conditions: co-culture with L363
In short: (§1)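 Jurkat NFAT-GFP (JNG) cells stably transduced with SARs by lentivirus, with drug selection where the construct carried a resistance gene, then co-cultured with target cells at E:T ~1:2 for ~4–18 h. % GFP-positive cells measured by FACS against parental JNG; +/- to 5+ correspond to ~5–50% GFP-positive.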

[2] = system: Nalm6 cells; test: JNG assay, co-culture with Nalm6 cells; conditions: co-culture with Nalm6
In short: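 Jurkat NFAT-GFP reporter cells stably expressing lentivirally delivered SARs (puromycin or blasticidin selection) were cocultured with target cells at E:T ~1:2 for ~4–18 h. GFP was read by FACS, and % GFP+ cells were scored against parental reporter cells (+/-, +, 2+…5+ ≈ 5%, 10%, 20%…50%).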

[3] = system: RAJI cells; test: JNG assay, co-culture with RAJI cells; conditions: JNG cells expressing construct, co-culture with Raji
In short: as §1

Molecule | NFAT-GFP ASSAY: L363 [1] | NFAT-GFP ASSAY: Nalm6 [2] | NFAT-GFP ASSAY: Raji [3]
22019 (protein) MALPVTALLLPLALLLHAARPLEGKPIPNPLLGLDSTGSGEDLKNVFPPEVAVFEPSKAEIAHTQKATLVCLATGFYPDHVELSWWVNGKEVHSGVCTDPQPLKEQPALNDSRYCLSSRLRVSATFWQNPRNHFRCQVQFYGLSENDEWTQDRAKPVTQIVSAEAWGRADCGITSASYHQGVLSATILYEILLGKATLYAVLVSALVLMAMVKRKDSRGRAKRSGSGATNFSLLKQAGDVEENPGPTSTMALPVTALLLPLALLLHAARPQLQLQESGPGLVKPSETLSLTCTVSGDSISSGDYYWGWIRQPPGKGLEWIGHIYYSGVTYYNPSLKSRVTISVDTSRNQFSLKLSSVTAADTAVYYCTREDSSNWRSRGQGTLVTVSSLESGGGGSFEVQLLESGGGLIQPGGSLRLSCAASGFTFSSHAMTWVRQAPGKGLEWVSAISGSGDYTHYADSVKGRFTISRDNSKNTVYLQMNSLRAEDSAVYYCAKDEDGGSLLGHRGQGTLVTVSSTREQKLISEEDGSGIQNPDPAVYQLRDSKSSDKSVCLFTDFDSQTNVSQSKDSDVYITDKCVLDMRSMDFKSNSAVAWSNKSDFACANAFNNSIIPEDTFFPSSDVPCDVKLVEKSFETDTNLNFQNLSVIGFRILLLKVAGFNLLMTLRLWSSRAKRSGSGVKQTLNFDLLKLAGDVESNPGPSRGHMTEYKPTVRLATRDDVPRAVRTLAAAFADYPATRHTVDPDRHIERVTELQELFLTRVGLDIGKVWVADDGAAVAVWTTPESVEAGAVFAEIGPRMAELSGSRLAAQQQMEGLLAPHRPKEPAWFLATVGVSPDHQGKGLGSAVVLPGVEAAERAGVPAFLETSAPRNLPFYERLGFTVTADVEVPEGPRTWCMTRKPGA | + (refer to approximately 5%, 10%, 20%, 30%, 40% and 50% GFP positive cells) | +/- (refer to approximately 5%, 10%, 20%, 30%, 40% and 50% GFP positive cells) | + (refer to approximately 5%, 10%, 20%, 30%, 40% and 50% GFP positive cells)
22049 (protein) MALPVTALLLPLALLLHAARPQLQLQESGPGLVKPSETLSLTCTVSGDSISSGDYYWGWIRQPPGKGLEWIGHIYYSGVTYYNPSLKSRVTISVDTSRNQFSLKLSSVTAADTAVYYCTREDSSNWRSRGQGTLVTVSSLEGQPKANPTVTLFPPSSEELQANKATLVCLISDFYPGAVTVAWKADGSPVKAGVETTKPSKQSNNKYAASSYLSLTPEQWKSHRSYSCQVTHEGSTVEKTVAPTECSPIKTDVITMDPKDNCSKDANDTLLLQLTNTSAYYMYLLLLLKSVVYFAIITCCLLRRTAFCCNGEKSRAKRSGSGATNFSLLKQAGDVEENPGPTSMDWIWRILFLVGAATGAHSFEVQLLESGGGLIQPGGSLRLSCAASGFTFSSHAMTWVRQAPGKGLEWVSAISGSGDYTHYADSVKGRFTISRDNSKNTVYLQMNSLRAEDSAVYYCAKDEDGGSLLGHRGQGTLVTVSSTRASTKGPSVFPLAPSSKSTSGGTAALGCLVKDYFPEPVTVSWNSGALTSGVHTFPAVLQSSGLYSLSSVVTVPSSSLGTQTYICNVNHKPSNTKVDKRVEPKSCEVKTDSTDHVKPKETENTKQPSKSCHKPKAIVHTEKVNMMSLTVLGLRMLFAKTVAVNFLLTAKLFFLRAKRSGSGVKQTLNFDLLKLAGDVESNPGPSRGHMTEYKPTVRLATRDDVPRAVRTLAAAFADYPATRHTVDPDRHIERVTELQELFLTRVGLDIGKVWVADDGAAVAVWTTPESVEAGAVFAEIGPRMAELSGSRLAAQQQMEGLLAPHRPKEPAWFLATVGVSPDHQGKGLGSAVVLPGVEAAERAGVPAFLETSAPRNLPFYERLGFTVTADVEVPEGPRTWCMTRKPGA | +/- (refer to approximately 5%, 10%, 20%, 30%, 40% and 50% GFP positive cells) | +/- (refer to approximately 5%, 10%, 20%, 30%, 40% and 50% GFP positive cells) | 
